From publication PMC4423210, “Ubiquitination of the Dishevelled DIX domain blocks its head-to-tail polymerization” (Nature Communications, 2015) come the findings set out here.

A value given as a limit tells only on which side of the number the result lay.

Data set [1] concerns the molecule itself. The experiment in a line: crystal structure; hDvl2 DIX-Y27D, 40% PEG400, 0.1 M Tris pH 8.5, 0.2 M LiSO4, 19 °C; helical filament in the crystal.
Data set [2] deals with the molecule itself. In words: SEC-MALS; loading concentration 50 μM (reduced ∼10x during SEC); Superdex-75 HR10/300, 20 mM Tris pH 7.4, 200 mM NaCl, 0.01% NaN3; self-association, apparent molecularity. In general terms: SEC sorts molecules by how far they enter the pores of the column.
Data set [3] deals with the molecule itself. The experiment in a line: SEC-MALS; loading concentration 10 μM (reduced ∼10x during SEC); Superdex-75 HR10/300, 20 mM Tris pH 7.4, 200 mM NaCl, 0.01% NaN3; self-association, apparent molecularity.
Data set [4] concerns the molecule itself. In words: SEC-MALS; highest loading concentration (235 μM DIX, ∼160 μM DIX54-Ub or DIX58-Ub; reduced ∼10x during SEC); Superdex-75 HR10/300, 20 mM Tris pH 7.4, 200 mM NaCl, 0.01% NaN3; self-association, apparent molecularity.

B1: hDvl2 DIX domain bearing the polymerization-deficient mutation M4 (Y27D) (domain or fragment, human)
chain: GETKVIYHLDEEETPDLVKIPVPAERITLGDFKSVLQRPAGAKYFFKSMDQDFGVVKEEISDDNARLPCFNGRVVSWLVSSDNPQPEMAPPVHEPR
notes: DIX domain of human Dishevelled-2 (hDvl2) with Y27D; Crystallised at 50 mg/ml; forms a helical head-to-tail filament in the crystal; also called hDvl2 DIX-Y27D; source: E. coli BL21-CodonPlus(DE3)-RIL, purified (Ni-NTA, TEV, gel filtration, anion exchange); not shown: 6xHis, N-terminal, cleaved
With B1, the binding result in data set [1] is listed as “binds”.

B2: DIX domain of human Dvl2 (hDvl2), unmodified (domain or fragment, UniProt O14641 11-93, looked up)
chain: VGETKVIYHLDEEETPYLVKIPVPAERITLGDFKSVLQRPAGAKYFFKSMDQDFGVVKEEISDDNARLPCFNGRVVSWLVSSD
notes: DIX domain of human Dishevelled-2 (hDvl2); Codon-optimised synthetic gene in pCDF-PylT; PDB 4WIP holds the Y27D mutant of the hDvl2 DIX domain; also called unmodified DIX; hDvl2 DIX domain; not shown: His6, N-terminal, cleaved
For B2, the “stoichiometry N” value was 3 in data set [2], 2 in data set [3] and greater than 84 monomers in data set [4].

A word on the stoichiometry N: it is a count of units in the complex or per binding partner.
